Test results: patent publication US20160083465A1 (AVEO PHARMACEUTICALS, published 2016)

Assays:
[1] = target: T1, mouse IgG1 Fc-mature human GDF15 fusion protein (mFc-rhGDF15) (mouse; human); experiment: SPR Biacore T100, 37 C, purified antibody captured by anti-human IgG Fc, antigen in solution
T1 construct: Made in CHOK1SV cells, purified by Protein A and size exclusion; also called mouse Fc fused to human GDF15
T1 chain: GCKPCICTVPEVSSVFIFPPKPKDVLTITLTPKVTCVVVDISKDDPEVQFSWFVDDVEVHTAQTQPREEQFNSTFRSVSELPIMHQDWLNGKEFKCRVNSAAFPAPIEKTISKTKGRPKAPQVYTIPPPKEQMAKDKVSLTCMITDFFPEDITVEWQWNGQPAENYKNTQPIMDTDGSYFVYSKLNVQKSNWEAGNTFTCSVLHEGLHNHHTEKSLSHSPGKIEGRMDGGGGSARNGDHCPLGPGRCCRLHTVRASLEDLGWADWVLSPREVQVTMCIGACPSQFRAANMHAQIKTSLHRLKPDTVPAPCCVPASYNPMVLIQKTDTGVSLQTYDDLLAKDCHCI
Method: (§1) Goat anti-human IgGs (Fc fragment specific, Jackson ImmunoResearch, West Grove, Pa.) were immobilized on carboxymethylated dextran CM4 sensor chips by amine coupling, according to a standard protocol. Analyses were performed at 37° C. using PBS containing 0.05% surfactant P20 as running buffer. The antibodies were captured in individual flow cells at a flow rate of 10 μL/minute. Injection time was varied for each antibody to yield an Rmax between 30 and 60 RU. […] The dissociation phase was monitored for up to 1200 seconds. The surface was then regenerated with two 60-second injections of 10 mM Glycine-HCl, pH 2.25, at a flow rate of 30 μL/minute.
(§2) Kinetic parameters were determined using the kinetic function of the BIAevaluation software (GE Healthcare) with double reference subtraction.

[2] = target: T1, mouse IgG1 Fc-mature human GDF15 fusion …; experiment: SPR Biacore T100, 37 C, antibody captured by anti-mouse IgG, antigen in solution
Method: as §1, with “Rabbit anti-mouse” for “Goat anti-human”, “(GE Healthcare)” for “(Fc fragment specific, Jackson ImmunoResearch, West Grove, Pa.)”, “chips (GE Healthcare)” for “chips”, “RU. 250 μg/mL mouse Fc (Jackson ImmunoResearch, West Grove, Pa.) was injected at 30 μL/minute for 120 seconds to block non-specific binding of capture antibodies to mouse Fc portion of the recombinant GDF15 protein when needed.” for “RU.”, “1500” for “1200”, “1.7,” for “2.25,”
as §2

[3] = target: T1, mouse IgG1 Fc-mature human GDF15 fusion …; experiment: SPR Biacore T100, 37 C, antibody from supernatant captured by anti-human IgG Fc, antigen in solution

Row | Binder | Kd [1] [nM] | koff [1] [s⁻¹] | kon [1] [M⁻¹ s⁻¹] | Kd [2] [nM] | koff [2] [s⁻¹] | kon [2] [M⁻¹ s⁻¹] | Kd [3] [nM] | koff [3] [s⁻¹] | kon [3] [M⁻¹ s⁻¹]
1 | Hu14F11-39 (antibody, human IgG1, kappa, Humanized, human IgG1 kappa) heavy: not shown light: DIQMTQSPSSLSASVGDRVTITCKASQNVGTNVAWFQQKPGKSPKALIYSPSYRYSGVPSRFSGSGSGTDFTLTISSLQPEDFATYFCQQYNSYPHTFGQGTKLEIKRTVAAPSVFIFPPSDEQLKSGTASVVCLLNNFYPREAKVQWKVDNALQSGNSQESVTEQDSKDSTYSLSSTLTLSKADYEKHKVYACEVTHQGLSSPVTKSFNRGEC | 0.066 | 0.00019 | 3e+06 |  |  |  |  |  | 
2 | Hu14F11-47 (antibody, human IgG1, kappa, Humanized, human IgG1 kappa) heavy: not shown light: DIQMTQSPSSLSASVGDRVTITCKASQNVGTNVAWFQQKPGKSPKALIYSPSYRYSGVPSRFSGSGSGTDFTLTISSLQPEDFATYFCQQYNSYPHTFGQGTKLEIKRTVAAPSVFIFPPSDEQLKSGTASVVCLLNNFYPREAKVQWKVDNALQSGNSQESVTEQDSKDSTYSLSSTLTLSKADYEKHKVYACEVTHQGLSSPVTKSFNRGEC | 0.065 | 0.00018 | 3.3e+06 |  |  |  |  |  | 
3 | 17B11 (antibody, mouse IgG1, kappa, Murine monoclonal from hybridoma, IgG1 kappa; also called antibody 17B11) heavy: QVTLKESGPGILQPSQTLSLTCSFSGFSLSTSGMGVSWIRQPSGKGLEWLAHNDWDDDKRYKSSLKSRLTISKDTSRNQVFLKITSVDTADTATYYCARRVGGLEGYFDYWGQGTTLTVSSAKTTPPSVYPLAPGSAAQTNSMVTLGCLVKGYFPEPVTVTWNSGSLSSGVHTFPAVLQSDLYTLSSSVTVPSSTWPSETVTCNVAHPASSTKVDKKIVPRDCGCKPCICTVPEVSSVFIFPPKPKDVLTITLTPKVTCVVVDISKDDPEVQFSWFVDDVEVHTAQTQPREEQFNSTFRSVSELPIMHQDWLNGKEFKCRVNSAAFPAPIEKTISKTKGRPKAPQVYTIPPPKEQMAKDKVSLTCMITDFFPEDITVEWQWNGQPAENYKNTQPIMDTDGSYFVYSKLNVQKSNWEAGNTFTCSVLHEGLHNHHTEKSLSHSPGK light: DIVLTQSPASLAVSLGQRATISCRASQSVSTSRFSYMHWFQQKPGQAPKLLIKYASNLESGVPARFSGSGSGTDFTLNIHPVEGEDTATYYCQHSWEIPYTFGGGTKLEIKRADAAPTVSIFPPSSEQLTSGGASVVCFLNNFYPKDINVKWKIDGSERQNGVLNSWTDQDSKDSTYSMSSTLTLTKDEYERHNSYTCEATHKTSTSPIVKSFNRNEC |  |  |  | 0.14 | 0.00051 | 3.7e+06 |  |  | 
4 | 04F08 (antibody, mouse IgG1, kappa, Murine monoclonal from hybridoma, IgG1 kappa; also called antibody 04F08) heavy: QVTLKESGPGILQPSQTLSLTCSFSGFSLSTYGMGVTWIRQPSGKGLEWLAHIYWDDDKRYNPSLKSRLTISKDTSNNQVFLKITSVDTADTATYYCAQTGYSNLFAYWGQGTLVTVSAAKTTPPSVYPLAPGSAAQTNSMVTLGCLVKGYFPEPVTVTWNSGSLSSGVHTFPAVLQSDLYTLSSSVTVPSSTWPSETVTCNVAHPASSTKVDKKIVPRDCGCKPCICTVPEVSSVFIFPPKPKDVLTITLTPKVTCVVVDISKDDPEVQFSWFVDDVEVHTAQTQPREEQFNSTFRSVSELPIMHQDWLNGKEFKCRVNSAAFPAPIEKTISKTKGRPKAPQVYTIPPPKEQMAKDKVSLTCMITDFFPEDITVEWQWNGQPAENYKNTQPIMDTDGSYFVYSKLNVQKSNWEAGNTFTCSVLHEGLHNHHTEKSLSHSPGK light: DIVMTQSQKFMSTSVGDRVSVTCKASQNVGTNVAWYQQKLGQSPKTLIYSASYRYSGVPDRFTGSGSGTDFTLTISNVQSEDLAEYFCQQYNSYPYTFGGGTKLEIKRADAAPTVSIFPPSSEQLTSGGASVVCFLNNFYPKDINVKWKIDGSERQNGVLNSWTDQDSKDSTYSMSSTLTLTKDEYERHNSYTCEATHKTSTSPIVKSFNRNEC |  |  |  | 0.19 | 0.00064 | 3.6e+06 |  |  | 
5 | Hu01G06-1 (antibody, human IgG1, kappa, Mouse variable regions, human IgG1 and kappa constant regions; also called Chimeric 01G06; chimeric 01G06 (Hu01G06-1)) heavy: not shown light: DIQMTQSPASLSASVGETVTITCRTSENLHNYLAWYQQKQGKSPQLLVYDAKTLADGVPSRFSGSGSGTQYSLKINSLQPEDFGSYYCQHFWSSPYTFGGGTKLEIKRTVAAPSVFIFPPSDEQLKSGTASVVCLLNNFYPREAKVQWKVDNALQSGNSQESVTEQDSKDSTYSLSSTLTLSKADYEKHKVYACEVTHQGLSSPVTKSFNRGEC | 0.16 | 0.00064 | 4.2e+06 |  |  |  | 0.14 | 0.00071 | 4.9e+06
6 | 08G01 (antibody, mouse IgG2b, kappa, Murine monoclonal from hybridoma, IgG2b kappa; also called antibody 08G01) heavy: EVLLQQSGPEVVKPGASVKIPCKASGYTFTDYNMDWVKQSHGKSLEWIGEINPNNGGTFYNQKFKGKATLTVDKSSSTAYMELRSLTSEDTAVYYCAREAITTVGAMDYWGQGTSVTVSSAKTTPPSVYPLAPGCGDTTGSSVTLGCLVKGYFPESVTVTWNSGSLSSSVHTFPALLQSGLYTMSSSVTVPSSTWPSQTVTCSVAHPASSTTVDKKLEPSGPISTINPCPPCKECHKCPAPNLEGGPSVFIFPPNIKDVLMISLTPKVTCVVVDVSEDDPDVQISWFVNNVEVHTAQTQTHREDYNSTIRVVSTLPIQHQDWMSGKEFKCKVNNKDLPSPIERTISKIKGLVRAPQVYILPPPAEQLSRKDVSLTCLVVGFNPGDISVEWTSNGHTEENYKDTAPVLDSDGSYFIYSKLNMKTSKWEKTDSFSCNVRHEGLKNYYLKKTISRSPGK light: DIQMTQSPASLSASVGETVTITCRASGNIHNYLAWYQQKQGKSPQLLVYNAKTLADGVPSRFSGSGSGTQYSLKINSLQPEDFGSYYCQHFWSSPYTFGGGTKLEIKRADAAPTVSIFPPSSEQLTSGGASVVCFLNNFYPKDINVKWKIDGSERQNGVLNSWTDQDSKDSTYSMSSTLTLTKDEYERHNSYTCEATHKTSTSPIVKSFNRNEC |  |  |  | 0.19 | 0.0011 | 6e+06 |  |  | 
7 | Hu01G06-46 (antibody, human IgG1, kappa, Humanized, human IgG1 kappa) heavy: not shown light: DIQMTQSPSSLSASVGDRVTITCRTSENLHNYLAWYQQKPGKSPKLLVYDAKTLADGVPSRFSGSGSGTDYTLTISSLQPEDFATYYCQHFWSSPYTFGQGTKLEIKRTVAAPSVFIFPPSDEQLKSGTASVVCLLNNFYPREAKVQWKVDNALQSGNSQESVTEQDSKDSTYSLSSTLTLSKADYEKHKVYACEVTHQGLSSPVTKSFNRGEC | 0.11 | 0.00038 | 3.6e+06 |  |  |  | 0.1 | 0.00043 | 4.1e+06
8 | Hu01G06-52 (antibody, human IgG1, kappa, Humanized, human IgG1 kappa) heavy: not shown light: DIQMTQSPSSLSASVGDRVTITCRTSENLHNYLAWYQQKPGKSPKLLVYDAKTLADGVPSRFSGSGSGTDYTLTISSLQPEDFATYYCQHFWSSPYTFGQGTKLEIKRTVAAPSVFIFPPSDEQLKSGTASVVCLLNNFYPREAKVQWKVDNALQSGNSQESVTEQDSKDSTYSLSSTLTLSKADYEKHKVYACEVTHQGLSSPVTKSFNRGEC | 0.099 | 0.00036 | 3.6e+06 |  |  |  | 0.089 | 0.00044 | 5e+06
